Molecular target: linear di-Ub (M1-linear from UbiQ) (UniProt P0CG47)
Experiment: SPR

binding result: binds
B1: His-tagged Ufd2p (enzyme)
chain: MTAIEDILQITTDPSDTRGYSLLKSEEVPQGSTLGVDFIDTLLLYQLTENEKLDKPFEYLNDCFRRNQQQKRITKNKPNAESLHSTFQEIDRLVIGYGVVALQIENFCMNGAFINYITGIVSNVNSYTDFLSQIIQRAILEGTALDLLNAVFPTLLEYCNKHVSHFDLNESVIYNNVLTIFELFVTFKPIAEIFTKIDGFFADYSCKPQDFERKTILGPILSLSPIEAAVAIRNYGDNLLRSKQQTAMIHESLQAEHKVVIDRLFFIVDKLVRGSLNSRTDMISYFAHIANKNHLRRADHPPFKELSSNGFMSNITLLLVRFSQPFLDISYKKIDKIDANYFNNPSLFIDLSGETRLNSDFKEADAFYDKNRKTADSKPNFISDCFFLTLTYLHYGLGGTLSFEEKMGSEIKALKEEIEKVKKIAANHDVFARFITAQLSKMEKALKTTESLRFALQGFFAHRSLQLEVFDFICGASTFLIRVVDPEHEFPFKQIKLPLIPDQIGVENVDNADFLRAHAPVPFKYYPEFVVEGPVNYSLYISKYQTSPIFRNPRLGSFVEFTTMVLRCPELVSNPHLKGKLVQLLSVGAMPLTDNSPGFMMDIFEHDELVNKNLLYALLDFYVIVEKTGSSSQFYDKFNSRYSISIILEELYYKIPSYKNQLIWQSQNNADFFVRFVARMLNDLTFLLDEGLSNLAEVHNIQNELDNRARGAPPTREEEDKELQTRLASASRQAKSSCGLADKSMKLFEIYSKDIPAAFVTPEIVYRLASMLNYNLESLVGPKCGELKVKDPQSYSFNPKDLLKALTTVYINLSEQSEFISAVAKDERSFNRNLFVRAVDILGRKTGLASPEFIEKLLNFANKAEEQRKADEEEDLEYGDVPDEFLDPLMYTIMKDPVILPASKMNIDRSTIKAHLLSDSTDPFNRMPLKLEDVTPNEELRQKILCFKKQKKEEAKHKASE
